From patent publication US20170145086A1 (VISTERRA, published 2017)
Values joined by “and” are separate entries in the source; they are usually repeats but may differ in a detail not shown here. Equal entries are not always repeated.

What was measured:
[1] = target: T1, HA-GCN4 hAPRIL (amino acid residues 105-250) (human, UniProt O75888 105-250); assay: indirect ELISA on human APRIL; row printed 4504, legend paragraph 738 says 4540
T1 construct: Bought (R&D Systems); also called HA-tagged GCN4 human APRIL; HA-GCN4-huAPRIL; not shown: N-terminal HA tag; GCN4 isoleucine zipper oligomerization domain
T1 sequence: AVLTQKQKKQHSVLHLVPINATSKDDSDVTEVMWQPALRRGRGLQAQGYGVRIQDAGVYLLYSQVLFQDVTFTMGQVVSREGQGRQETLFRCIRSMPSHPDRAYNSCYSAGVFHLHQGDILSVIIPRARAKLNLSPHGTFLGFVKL

[2] = target: T1, HA-GCN4 hAPRIL (amino acid residues …); assay: cell-based or functional assay
[3] = target: T2, HA-GCN4 mAPRIL (amino acid residues 96-241) (mouse, UniProt Q9D777 96-241, Assembles as a homotrimer through the GCN4 zipper; one protomer is given.); assay: indirect ELISA on mouse APRIL; row printed 4504, legend paragraph 738 says 4540
T2 construct: Bought (R&D Systems); also called HA-tagged mouse APRIL (R&D Systems); recombinant mouse APRIL; not shown: N-terminal HA tag and GCN4 isoleucine-zipper trimerisation domain, with any linker, of the bought R&D Systems protein
T2 sequence: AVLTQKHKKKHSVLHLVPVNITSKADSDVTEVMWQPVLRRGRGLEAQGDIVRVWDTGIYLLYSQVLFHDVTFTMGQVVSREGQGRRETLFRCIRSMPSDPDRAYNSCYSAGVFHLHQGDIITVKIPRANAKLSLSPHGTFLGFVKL

[4] = target: T1, HA-GCN4 hAPRIL (amino acid residues …); assay: indirect ELISA on HA-GCN4 human APRIL, 3-parameter fit
Method: FIG. 5 depicts the binding of anti-APRIL antibodies to human APRIL. Relative binding of select anti-APRIL antibodies was measured by indirect ELISA. Select antibodies based on prior hybridoma screening were recombinantly produced (based on immunoglubin VH and VL gene sequencing) as described. HA-tagged GCN4 human APRIL R&D Systems was used as source of APRIL. Binding data was analyzed by non-linear regression using a three parameter fit.
(§1) Purified antibodies were further characterized for APRIL binding, APRIL species cross reactivity (human APRIL vs. mouse APRIL), and receptor blocking activity using TACI-Fc. For binding, an APRIL-based indirect ELISA was used to determine by first approximation the relative affinity of purified anti-APRIL antibodies to either human APRIL or mouse APRIL. ELISA method was as generally described above. […] Blocking and wash steps were completed as described. Binding of anti-APRIL antibodies to APRIL was quantified using an 8 point dilution of test antibody that spanned over a four log scale. Antibody binding to APRIL was detected using a rabbit anti-mouse IgG (H+L)-HRP conjugate (Jackson ImmunoResearch Laboratories). Antibody binding data was analyzed by non-linear regression analysis using a 3 parameter fit to determine max binding and apparent EC₅₀ values. […] Mouse specific antibody Apry-1-1 (Adipogen) was likewise used for quantification of antibody binding to mouse APRIL.

[5] = target: T1, HA-GCN4 hAPRIL (amino acid residues …); assay: blocking ELISA, 4-parameter fit; blocked: human APRIL binding to human TACI-Fc
Method: (§2) Recombinant TACI-Fc or BCMA-Fc was coated on 96 well plates in 0.1 M carbonate-bicarbonate buffer (pH 9.6), overnight at 4° C. Plates were washed three times with 1×PBST (PBS+0.025% Tween 20) followed by blocking with 1% BSA in 1×PBS, 37° C. for 1 hour. All subsequent wash steps were carried out with 1×PBST. To assess antibody blocking, either 15 ng/mL or 50 ng/mL HA-GCN4-huAPRIL was preincubated with varying antibody concentrations ranging from 0.03-30 μg/mL in binding buffer comprised of 1% BSA and 0.025% Tween-20 in 1×PBS. Preincubation was carried out at 30° C. for 1 hour with mixing. Antibody-APRIL premix with 50 ng/mL APRIL or 15 ng/mL APRIL was then added to TACI-Fc coated or BCMA-Fc coated plates, respectively, and incubated for an additional hour at 30° C. HA-tagged APRIL binding to either receptor was quantified using a goat polyclonal anti-HA tag-HRP antibody (Abcam) added at a 1:10000 dilution followed by colorimetric development using 100 μl/well of freshly prepared TMB substrate (KPL) carried out for up to 30 minutes at room temperature before quenching enzymatic reaction by the addition of 1N sulfuric acid. ELISA signal was quantified by absorbance at 450 nm. ELISA data was analyzed by non-linear regression. IC₅₀ values were calculated based on a 4 parameter fit of antibody titration curves. […] Non-blocking antibodies Aprly-1 or Aprly-5 (Enzo Biosciences) were used as negative controls. Mouse specific, blocking antibody aprily-1-1 (Adipogen) was generally used as a positive control in experiments using mouse APRIL (HA-GCN4-mAPRIL).

[6] = target: T1, HA-GCN4 hAPRIL (amino acid residues …); assay: indirect ELISA on coated HA-GCN4 human APRIL; EC50 from non-linear regression
Source text: as §1

[7] = target: T1, HA-GCN4 hAPRIL (amino acid residues …); assay: blocking ELISA, 4-parameter fit; blocked: human APRIL binding to human BCMA-Fc
Method: as §2

[8] = target: T1, HA-GCN4 hAPRIL (amino acid residues …); assay: blocking ELISA; blocked: human APRIL binding to human BCMA-Fc; design: concentration or dose not given beside the values
Method: as §2

[9] = target: T1, HA-GCN4 hAPRIL (amino acid residues …); assay: blocking ELISA; blocked: human APRIL binding to human TACI-Fc; design: concentration or dose not given beside the values
Method: as §2

B1: monoclonal antibody 4540 (antibody, V domains shown)
VH: QVQLQQSGPELVKPGASVKISCKASGYTFADYYINWVKQRPGQGLEWIGWIFPGSGSTYYNEKFKGKATLTVDKSSSTAYMLLSSLTSEDSAVYFCARGDSGRAMDYWGQGTSVTVSS
VL: DIQMTQSPSSLSASLGGKVTITCKASQDINKYIAWYQHKPGKGPRLLIHYTSTLQSGIPSRFSGSGSGRDYSFSISNLEPEDNATYYCLQYDNLLTFGAGTKLELK
notes: mouse-derived
EC50 [1]: 0.00139 nM | IC50 (inhibition of APRIL-mediated BCMA NFκB signaling) [2]: ~0.81 nM | IC50 (inhibition of APRIL-mediated TACI NFκB signaling) [2]: ~2.25 nM | EC50 [3]: 0.00151 nM

B2: monoclonal antibody 2218 (antibody, mouse IgG2, V domains shown)
VH: DVQLQESGPGLVKPSQSLSLTCSVTGYSITSGYYWNWIRQFPGNKLEWMGYISYDGYNNYNPSLKNRISITRDTSKNQFFLKLNSVTTEDTATYYCANYYDYEDWYFGVWGTGTTVTVSS
VL: DIVLTQSPASLAMSLGKRATISCRASESVSIIGTNSIHWYQQKPGQPPKLLIYHASNLETGVPARFSGSGSRTDFTLTIDPVEEDDVAIYYCLQSRKIPYTFGGGTKLEIK
EC50 [4]: 0.0126 µg/mL and 0.085 nM | IC50 [5]: 0.74 nM | EC50 [6]: < 0.2 nM | IC50 [7]: 0.22 nM | % Inhibition [8]: 100% | % Inhibition [9]: 91%

B3: monoclonal antibody 3530 (antibody, mouse IgG2, V domains shown)
VH: QVQLQQSGAELVRPGASVKLSCKASGYTFTDHEMHWVRQTPVHGLEWIGVIDPDTGDTTYNQKFKGKATLTADKSSSTAYMDLRSLTSEDSAVFYCTRWTGGDYWGHGTTLTVSS
VL: DAVMTQTPLSLSVTIGQPASISCKSSQSLLYSDGKTYLNWFQQRPGQSPKRLMYQVSKLDPGIPDRFSGSGSETDFTLKISRVEAEDLGVYYCLQGTYYPYTFGSGTKLEIK
EC50 [4]: 0.058 µg/mL and 0.392 nM | IC50 [5]: 4.95 nM | IC50 [7]: 0.68 nM | % Inhibition [8]: 35% | % Inhibition [9]: 81%
